Values quoted from earlier work, collected in article PMC11264262.

Tests used:
Glu73 = Glu73 (UniProt position 107, IFSNREGKLPG); details: folded protein
His200 = His200 (UniProt position 200, RKGTVHDTALT)

Row | Substance | pKa (Glu73) | pKa (His200)
1 | Barnase (Bacillus amyloliquefaciens (inferred; organism not stated in the article)) | 2.1 | 
2 | Homoprotocatechuate 2,3-dioxygenase (HPCD) (Brevibacterium fuscum (inferred; organism not stated in the article)) |  | ca. 7.65
